# Reference: US10314894B2, “Treatment of cardio-renal disease using PCSK6” (THE CLEVELAND CLINIC FOUNDATION, priority 2014, dated 2019)
# T1: corin mutant R801A (Homo sapiens, UniProt Q9Y5Q5, R801A)
# T1 construct: expressed in transfected cells; host or cells: HEK293
# T1 sequence (Q9Y5Q5 1-1042 R801A): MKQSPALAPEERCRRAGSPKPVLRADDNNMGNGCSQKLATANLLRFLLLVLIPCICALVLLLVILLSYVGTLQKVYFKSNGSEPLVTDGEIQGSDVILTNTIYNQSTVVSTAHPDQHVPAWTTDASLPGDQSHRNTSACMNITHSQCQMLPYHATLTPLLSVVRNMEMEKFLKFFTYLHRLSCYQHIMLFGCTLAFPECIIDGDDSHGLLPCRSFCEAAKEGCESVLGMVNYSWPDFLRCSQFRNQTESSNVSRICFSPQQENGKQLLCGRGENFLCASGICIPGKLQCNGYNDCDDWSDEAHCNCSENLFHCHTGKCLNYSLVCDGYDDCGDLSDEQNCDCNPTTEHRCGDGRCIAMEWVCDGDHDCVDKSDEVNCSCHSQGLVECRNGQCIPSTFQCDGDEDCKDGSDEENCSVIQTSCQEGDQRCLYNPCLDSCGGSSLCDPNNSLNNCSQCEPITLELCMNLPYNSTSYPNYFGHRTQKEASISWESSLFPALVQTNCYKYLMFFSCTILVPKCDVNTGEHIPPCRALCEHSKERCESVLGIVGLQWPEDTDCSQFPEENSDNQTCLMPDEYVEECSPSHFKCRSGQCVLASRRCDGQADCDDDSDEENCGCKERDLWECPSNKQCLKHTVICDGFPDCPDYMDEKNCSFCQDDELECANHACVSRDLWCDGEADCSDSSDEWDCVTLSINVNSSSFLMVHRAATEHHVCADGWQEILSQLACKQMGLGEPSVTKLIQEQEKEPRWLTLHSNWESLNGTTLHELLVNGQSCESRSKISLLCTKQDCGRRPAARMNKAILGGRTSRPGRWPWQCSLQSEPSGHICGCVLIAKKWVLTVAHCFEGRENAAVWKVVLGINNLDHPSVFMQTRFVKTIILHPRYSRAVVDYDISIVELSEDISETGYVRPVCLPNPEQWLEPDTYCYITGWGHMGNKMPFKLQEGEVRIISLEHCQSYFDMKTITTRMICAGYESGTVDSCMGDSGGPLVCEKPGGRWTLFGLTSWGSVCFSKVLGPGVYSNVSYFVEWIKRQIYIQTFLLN
# T2: corin WT (Homo sapiens, UniProt Q9Y5Q5)
# T2 construct: expressed in transfected cells; host or cells: HEK293
# T2 sequence (Q9Y5Q5 1-1042): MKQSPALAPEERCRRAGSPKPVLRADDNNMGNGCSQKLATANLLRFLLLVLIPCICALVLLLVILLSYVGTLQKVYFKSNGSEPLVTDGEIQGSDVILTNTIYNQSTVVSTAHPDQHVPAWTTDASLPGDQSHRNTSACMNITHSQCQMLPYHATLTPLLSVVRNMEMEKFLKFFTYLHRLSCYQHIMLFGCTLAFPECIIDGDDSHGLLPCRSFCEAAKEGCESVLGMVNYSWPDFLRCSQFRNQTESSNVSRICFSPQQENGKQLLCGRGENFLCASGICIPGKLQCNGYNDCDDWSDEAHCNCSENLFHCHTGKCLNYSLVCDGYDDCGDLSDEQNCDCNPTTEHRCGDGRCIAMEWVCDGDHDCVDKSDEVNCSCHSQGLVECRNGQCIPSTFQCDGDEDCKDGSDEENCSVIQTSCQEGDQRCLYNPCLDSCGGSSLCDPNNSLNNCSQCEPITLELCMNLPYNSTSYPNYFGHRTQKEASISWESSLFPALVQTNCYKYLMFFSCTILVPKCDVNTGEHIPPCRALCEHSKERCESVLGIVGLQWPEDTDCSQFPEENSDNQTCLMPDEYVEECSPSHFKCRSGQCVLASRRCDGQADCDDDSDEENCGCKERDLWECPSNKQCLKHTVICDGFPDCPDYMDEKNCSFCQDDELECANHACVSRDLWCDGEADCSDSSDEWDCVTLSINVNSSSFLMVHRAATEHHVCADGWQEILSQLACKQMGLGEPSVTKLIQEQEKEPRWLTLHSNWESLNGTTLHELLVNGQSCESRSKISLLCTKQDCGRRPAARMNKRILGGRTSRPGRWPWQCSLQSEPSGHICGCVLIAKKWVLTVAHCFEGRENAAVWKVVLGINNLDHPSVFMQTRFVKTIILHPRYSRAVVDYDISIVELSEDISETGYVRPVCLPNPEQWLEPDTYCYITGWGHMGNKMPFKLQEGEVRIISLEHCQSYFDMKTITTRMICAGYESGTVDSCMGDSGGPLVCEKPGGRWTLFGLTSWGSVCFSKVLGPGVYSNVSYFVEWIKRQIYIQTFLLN
# Columns and labels:
# corin mutant R801A = target: T1, corin mutant R801A; experiment: PCSK6-mediated corin activation in HEK293 cells, corin mutant R801A (control); format: cell-based; settings: corin mutant R801A lacking the cleavage site
# Description: (§1) Plasmids expressing human corin WT and mutants R801A, S985A, T555I, Q568P, T555I/Q568P, K317E, S472G and R539C were reported previously. Dong, N. et al., J Biol Chem 289, 17909-17916 (2014); Knappe et al., J Biol Chem 278, 52363-52370 (2003); Wu et al., J Biol Chem 277, 16900-16905. (2002). Plasmids expressing human PCSK1-9 were made by cloning respective cDNAs into pcNDA3.1 vector. Recombinant corin and PCSK proteins encoded by these plasmids contained a C-terminal V5 or flag tag for protein detection in Western blotting.
# (§2) HEK293 and HL-1 cells were transfected with corin or PCSK6 expression plasmids. After 48-72 h, cells were lysed in a buffer containing 25 mM Tris-HCl, pH 7.4, 150 mM NaCl, 1 mM EDTA, 1% (v/v) NP-40, and 1% (v/v) protease inhibitor cocktail. Recombinant corin and PCSK6 proteins were immunoprecipitated with an anti-V5 or anti-flag antibody. Western blotting was carried out to analyze corin expression and activation or PCSK6 expression with or without reducing agents. Percentage of corin activation (corin-p vs. corin fragments) was quantified by densitometric analysis of Western blots.
# corin WT = target: T2, corin WT; experiment: PCSK6-mediated corin activation in HEK293 cells, corin WT; format: cell-based; settings: Western
# Description: as §1, §2
molecule,measurement,setting,value
"proprotein convertase subtilisin/kexin-6 (protein, listed as Homo sapiens, C-terminal FLAG tag) MPPRAPPAPGPRPPPRAAAATDTAAGAGGAGGAGGAGGPGFRPLAPRPWRWLLLLALPAACSAPPPRPVYTNHWAVQVLGGPAEADRVAAAHGYLNLGQIGNLEDYYHFYHSKTFKRSTLSSRGPHTFLRMDPQVKWLQQQEVKRRVKRQVRSDPQALYFNDPIWSNMWYLHCGDKNSRCRSEMNVQAAWKRGYTGKNVVVTILDDGIERNHPDLAPNYDSYASYDVNGNDYDPSPRYDASNENKHGTRCAGEVAASANNSYCIVGIAYNAKIGGIRMLDGDVTDVVEAKSLGIRPNYIDIYSASWGPDDDGKTVDGPGRLAKQAFEYGIKKGRQGLGSIFVWASGNGGREGDYCSCDGYTNSIYTISVSSATENGYKPWYLEECASTLATTYSSGAFYERKIVTTDLRQRCTDGHTGTSVSAPMVAGIIALALEANSQLTWRDVQHLLVKTSRPAHLKASDWKVNGAGHKVSHFYGFGLVDAEALVVEAKKWTAVPSQHMCVAASDKRPRSIPLVQVLRTTALTSACAEHSDQRVVYLEHVVVRTSISHPRRGDLQIYLVSPSGTKSQLLAKRLLDLSNEGFTNWEFMTVHCWGEKAEGQWTLEIQDLPSQVRNPEKQGKLKEWSLILYGTAEHPYHTFSAHQSRSRMLELSAPELEPPKAALSPSQVEVPEDEEDYTAQSTPGSANILQTSVCHPECGDKGCDGPNADQCLNCVHFSLGSVKTSRKCVSVCPLGYFGDTAARRCRRCHKGCETCSSRAATQCLSCRRGFYHHQEMNTCVTLCPAGFYADESQKNCLKCHPSCKKCVDEPEKCTVCKEGFSLARGSCIPDCEPGTYFDSELIRCGECHHTCGTCVGPGREECIHCAKNFHFHDWKCVPACGEGFYPEEMPGLPHKVCRRCDENCLSCAGSSRNCSRCKTGFTQLGTSCITNHTCSNADETFCEMVKSNRLCERKLFIQFCCRTCLLAG",PCSK6-mediated activation cleavage,corin mutant R801A,no activation cleavage was detected
same,PCSK6-mediated activation cleavage,corin WT,detected
